The source of these data is PMC11885566 (Communications Biology, 2025).

The test addresses SARS-CoV-2 XBB.1.16 RBD protein (SARS-CoV-2 Omicron XBB.1.16, strain). Put plainly: BLI.

B1: CYFN1006-1 (antibody, V domains shown)
VH: QMQLVQSGAEVKKPGESLKISCKGSGYTFSYYWIGWVRQMPGKGLEWMGIIYPGDSDTRYSPSFQGQVTISADKSISTAYLHWSSLKASDTAMYYCARQGDLGDWILLGYWGQGTLVTVSS
VL: QSALTQPRSVSGSLGQSVTISCTGISSDVGGDNYVSWYQQHPGKAPKLMIYDVSKRPSGVPDRFSGSKSGNTASLTISGLQADDEADYYCCSYALSRVVFGGGTMLTVL
Turning to B1, binding was put at a Kd of 1.37 nM.

As usually defined, the Kd is the free concentration of one partner at which half of the binding sites on the other are occupied at equilibrium, for simple one-to-one binding. A lower Kd goes with higher affinity.
